The target in data set [1] is RPA (Rfa1/Rfa2/Rfa3) (Saccharomyces cerevisiae? (budding …, UniProt P22336;P26754;P26755 1-621;1-273;1-122)). Kind of data set: fluorescence polarization; 5 mM MgCl2; FP: 20 mM HEPES pH 7.5, 125 mM NaCl, 0.1% Tween-20, 23°C, 50 nM DNA (RPA/SUMO-RPA on ss32: 1 nM DNA, plus 5 mM MgCl2, 1 mM DTT); EMSA: same buffer with 5 mM MgCl2 (Fig 8 also 1 mM DTT), 23°C, 6% gel in 0.5x TBE. The note with it: protein: recombinant; tags: noncleavable N-terminal His6 on Rfa2; copies: 1;1;1; label: 5' 6-FAM; single strand. Background: Polarisation of emitted light reports the rotation of a fluorescent probe.
RPA (Rfa1/Rfa2/Rfa3) (Saccharomyces cerevisiae?, sequence (P22336 whole entry, chain 1 of 3): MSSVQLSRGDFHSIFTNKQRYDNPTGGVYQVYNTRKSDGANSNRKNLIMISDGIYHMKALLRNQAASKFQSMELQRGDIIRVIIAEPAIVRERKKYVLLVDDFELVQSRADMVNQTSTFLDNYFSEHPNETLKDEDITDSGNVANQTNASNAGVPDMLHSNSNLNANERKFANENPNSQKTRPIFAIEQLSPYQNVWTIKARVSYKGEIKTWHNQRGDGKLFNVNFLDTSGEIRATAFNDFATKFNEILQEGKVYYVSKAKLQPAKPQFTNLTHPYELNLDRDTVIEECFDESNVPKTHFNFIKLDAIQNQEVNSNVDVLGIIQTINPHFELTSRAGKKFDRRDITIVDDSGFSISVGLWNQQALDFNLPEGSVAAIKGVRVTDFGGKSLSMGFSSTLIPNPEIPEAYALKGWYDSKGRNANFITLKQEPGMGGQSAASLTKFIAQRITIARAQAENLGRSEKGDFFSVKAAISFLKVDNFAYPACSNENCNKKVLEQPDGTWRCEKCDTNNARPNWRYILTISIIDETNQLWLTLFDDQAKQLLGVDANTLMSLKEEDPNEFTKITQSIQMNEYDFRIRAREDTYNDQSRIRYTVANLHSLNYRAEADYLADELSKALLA
RPA (Rfa1/Rfa2/Rfa3) (Saccharomyces cerevisiae?, sequence (P26754 whole entry, chain 2 of 3): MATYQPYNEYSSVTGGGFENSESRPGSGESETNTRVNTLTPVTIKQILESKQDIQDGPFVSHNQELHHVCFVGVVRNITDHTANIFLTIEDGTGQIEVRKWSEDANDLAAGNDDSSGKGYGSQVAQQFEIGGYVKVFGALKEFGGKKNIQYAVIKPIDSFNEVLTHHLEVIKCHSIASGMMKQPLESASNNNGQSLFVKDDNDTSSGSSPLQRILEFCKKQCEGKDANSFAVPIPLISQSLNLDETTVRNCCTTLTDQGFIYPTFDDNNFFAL
RPA (Rfa1/Rfa2/Rfa3) (Saccharomyces cerevisiae?, sequence (P26755 whole entry, chain 3 of 3): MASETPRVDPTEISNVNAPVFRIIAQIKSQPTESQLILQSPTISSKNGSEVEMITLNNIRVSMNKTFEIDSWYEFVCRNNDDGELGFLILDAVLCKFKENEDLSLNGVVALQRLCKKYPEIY

Data set [2] addresses T1, Siz2∆CT (Saccharomyces cerevisiae? (budding …, UniProt Q12216 1-420)).
T1 sequence: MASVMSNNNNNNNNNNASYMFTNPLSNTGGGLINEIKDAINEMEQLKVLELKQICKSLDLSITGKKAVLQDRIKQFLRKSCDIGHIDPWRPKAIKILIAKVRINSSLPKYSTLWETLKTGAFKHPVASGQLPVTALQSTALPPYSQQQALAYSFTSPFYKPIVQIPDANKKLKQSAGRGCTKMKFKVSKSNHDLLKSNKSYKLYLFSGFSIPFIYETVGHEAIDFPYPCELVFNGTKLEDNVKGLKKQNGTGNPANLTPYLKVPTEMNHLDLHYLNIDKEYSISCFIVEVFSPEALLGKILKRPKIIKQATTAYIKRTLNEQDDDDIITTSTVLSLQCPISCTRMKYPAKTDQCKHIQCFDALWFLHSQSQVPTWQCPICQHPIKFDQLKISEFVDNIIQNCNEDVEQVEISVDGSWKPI
Briefly: fluorescence polarization; FP: 20 mM HEPES pH 7.5, 125 mM NaCl, 0.1% Tween-20, 23°C, 50 nM DNA (RPA/SUMO-RPA on ss32: 1 nM DNA, plus 5 mM MgCl2, 1 mM DTT); EMSA: same buffer with 5 mM MgCl2 (Fig 8 also 1 mM DTT), 23°C, 6% gel in 0.5x TBE. The note with it: protein: recombinant; tags: His6-thioredoxin removed with TEV; label: 5' 6-FAM on strand 1; blunt.

The target in data set [3] is T2, RPA reconstituted with ∆WH-Rfa2: Rfa1(1–621), His6-Rfa2(1–205), Rfa3(1–122) (budding yeast, UniProt P22336 1-621; P26754 1-205; P26755 1-122).
T2 construct: Rfa1 subunit of RPA, budding yeast, residues 1-621, tagless; Rfa2 subunit of RPA, budding yeast, residues 1-205 (winged helix domain removed), noncleavable N-terminal hexahistidine tag; Rfa3 subunit of RPA, budding yeast, residues 1-122, tagless; The purification of this variant is not described on its own; also called RPA∆WH; RPA lacking the WH domain of Rfa2; source: E. coli BL21 (DE3) …
T2 sequence (P22336 whole entry, chain 1 of 3, the tested form may be a part): as the sequence (P22336 whole entry, chain 1 of 3) above
T2 sequence (P26754 1-205, chain 2 of 3): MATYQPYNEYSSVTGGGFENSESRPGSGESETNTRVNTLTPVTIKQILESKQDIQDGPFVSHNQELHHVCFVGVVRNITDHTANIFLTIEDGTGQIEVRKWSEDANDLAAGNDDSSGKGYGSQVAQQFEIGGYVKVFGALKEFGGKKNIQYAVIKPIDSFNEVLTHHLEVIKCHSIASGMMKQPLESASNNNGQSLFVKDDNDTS
T2 sequence (P26755 whole entry, chain 3 of 3, the tested form may be a part): as the sequence (P26755 whole entry, chain 3 of 3) above
Kind of data set: fluorescence polarisation; 50 nM 5'-fluorescein-labelled DNA in complex with RPA or RPA∆WH, serially diluted Siz2∆CT; 23°C; 20 mM HEPES pH 7.5, 125 mM NaCl, 0.1% Tween-20; apparent Kd, single-site model with ligand depletion. The note with it: both partners purified.

Data set [4] has as its target T3, replication protein A (RPA): Rfa1(1–621), His6-Rfa2(1–273), Rfa3(1–122) (budding yeast, UniProt P22336 1-621; P26754 1-273; P26755 1-122).
T3 construct: Rfa1 subunit of RPA, budding yeast, residues 1-621, tagless; Rfa2 subunit of RPA, budding yeast, residues 1-273, noncleavable N-terminal hexahistidine tag; Rfa3 subunit of RPA, budding yeast, residues 1-122, tagless; also called wild-type RPA; source: E. coli BL21 (DE3) CodonPlus RIL, co-expressed, purified (Ni-NTA, HiTrap Heparin, Superdex200); not shown: His6, N-terminal, kept; copies: + +
The description is as above. The note with it: both partners purified.

The target in data set [5] is T2, RPA reconstituted with ∆WH-Rfa2: …. Briefly: native gel or EMSA; 10 nM 6-FAM-ds20ss32 DNA pre-bound to RPA, RPA∆WH or SUMO-RPA, serially diluted full-length Siz2; 25 min at 23°C; 20 mM HEPES pH 7.5, 125 mM NaCl, 0.1% Tween-20, 5 mM MgCl2; native 6% polyacrylamide gel in 0.5x TBE; apparent Kd. The following applies: both partners purified. Background: Mobility shift assays separate free from complexed probe on a gel.

Data set [6] has as its target T3, replication protein A (RPA): …. Described as above. The following applies: both partners purified.

Consider four molecules from PMC8591536, “DNA asymmetry promotes SUMO modification of the single‐stranded DNA‐binding protein RPA” (The EMBO Journal, 2021).

By Kd is commonly meant the equilibrium constant for the complex coming apart.

T3 sequence (P22336 whole entry, chain 1 of 3, the tested form may be a part): as the sequence (P22336 whole entry, chain 1 of 3) above
T3 sequence (P26754 whole entry, chain 2 of 3, the tested form may be a part): as the sequence (P26754 whole entry, chain 2 of 3) above
T3 sequence (P26755 whole entry, chain 3 of 3, the tested form may be a part): as the sequence (P26755 whole entry, chain 3 of 3) above

B1: 6-FAM-ss32 (32dT) (ssDNA)
DNA: TTTTTTTTTTTTTTTTTTTTTTTTTTTTTTTT
Consider B1, for which the Kd in data set [1] was less than 1 nM.

B2: 6-FAM-ds20 (dsDNA)
DNA 1: GCTGTAGCTAGTTTTGCTTC
DNA 2: GAAGCAAAACTAGCTACAGC
As for B2, the binding result in data set [2] is on record as “binds”.

B3: Siz2(1–420) (domain or fragment, budding yeast, UniProt Q12216 1-420, looked up)
chain: MASVMSNNNNNNNNNNASYMFTNPLSNTGGGLINEIKDAINEMEQLKVLELKQICKSLDLSITGKKAVLQDRIKQFLRKSCDIGHIDPWRPKAIKILIAKVRINSSLPKYSTLWETLKTGAFKHPVASGQLPVTALQSTALPPYSQQQALAYSFTSPFYKPIVQIPDANKKLKQSAGRGCTKMKFKVSKSNHDLLKSNKSYKLYLFSGFSIPFIYETVGHEAIDFPYPCELVFNGTKLEDNVKGLKKQNGTGNPANLTPYLKVPTEMNHLDLHYLNIDKEYSISCFIVEVFSPEALLGKILKRPKIIKQATTAYIKRTLNEQDDDDIITTSTVLSLQCPISCTRMKYPAKTDQCKHIQCFDALWFLHSQSQVPTWQCPICQHPIKFDQLKISEFVDNIIQNCNEDVEQVEISVDGSWKPI
notes: SUMO E3 ligase Siz2, budding yeast, residues 1-420 (SAP, PINIT and SP-RING domains; C-terminal region removed); also called Siz2∆CT; source: E. coli BL21 (DE3) CodonPlus RIL, purified (Ni-NTA, TEV cleavage, Superdex75); not shown: His6, N-terminal, cleaved; thioredoxin, N-terminal, cleaved
In the case of B3, the binding result in data set [3] and in data set [4] was “binds” in each case.

B4: Siz2(1–726) (enzyme, budding yeast, UniProt Q12216 1-726, looked up)
chain: MASVMSNNNNNNNNNNASYMFTNPLSNTGGGLINEIKDAINEMEQLKVLELKQICKSLDLSITGKKAVLQDRIKQFLRKSCDIGHIDPWRPKAIKILIAKVRINSSLPKYSTLWETLKTGAFKHPVASGQLPVTALQSTALPPYSQQQALAYSFTSPFYKPIVQIPDANKKLKQSAGRGCTKMKFKVSKSNHDLLKSNKSYKLYLFSGFSIPFIYETVGHEAIDFPYPCELVFNGTKLEDNVKGLKKQNGTGNPANLTPYLKVPTEMNHLDLHYLNIDKEYSISCFIVEVFSPEALLGKILKRPKIIKQATTAYIKRTLNEQDDDDIITTSTVLSLQCPISCTRMKYPAKTDQCKHIQCFDALWFLHSQSQVPTWQCPICQHPIKFDQLKISEFVDNIIQNCNEDVEQVEISVDGSWKPIHNSSAVITDTVNQNHSVKNENQGTVKQEQDYDSRNAFDTNLRNGSNHNEPEIISLDSSDDEAFIPASKSFPTHVNPRNDQLRADIFPSESEGSSDYNPNHTSTPKGSPTMDQDNYQDAFQMRSFLNQGATTNINDTPTNNSSINSFVTATNGDSRIFYNRGPSTPLLPAVLQNLTNQTEAQRNPYGPNYNTTAQDRNLLGIEGDLPPIPPVDPNSEAETELPTRTTSAAHLPPYIHVSTSGHGDDGKIRKRRHSNVSIYIPKNPYATLMKRRPQANHAIMNKTLAQTNDFNTSAQDNSEVVDLTSD
notes: SUMO E3 ligase Siz2, budding yeast, full length; cloned as Siz2(1–726), called Siz2(1–727) in the purification paragraph; also called full-length Siz2; Siz2(1–727); source: E. coli BL21 (DE3) CodonPlus RIL, purified (Ni-NTA, HiTrap Heparin, Ulp1 cleavage, Ni-NTA, Superdex200)
Turning to B4, the binding result in data set [5] and in data set [6] was “binds” throughout.
